# Data as given in paper PMC12160003 (Cell, 2025).
# Where two headings read alike, the source gives them in different places.
# B1: Human Recombinant GST-METTL14 (natural protein, UniProt Q9HCE5 1-456, looked up)
# chain: MDSRLQEIRERQKLRRQLLAQQLGAESADSIGAVLNSKDEQREIAETRETCRASYDTSAPNAKRKYLDEGETDEDKMEEYKDELEMQQDEENLPYEEEIYKDSSTFLKGTQSLNPHNDYCQHFVDTGHRPQNFIRDVGLADRFEEYPKLRELIRLKDELIAKSNTPPMYLQADIEAFDIRELTPKFDVILLEPPLEEYYRETGITANEKCWTWDDIMKLEIDEIAAPRSFIFLWCGSGEGLDLGRVCLRKWGYRRCEDICWIKTNKNNPGKTKTLDPKAVFQRTKEHCLMGIKGTVKRSTDGDFIHANVDIDLIITEEPEIGNIEKPVEIFHIIEHFCLGRRRLHLFGRDSTIRPGWLTVGPTLTNSNYNAETYASYFSAPNSYLTGCTEEIERLRPKSPPPKSKSDRGGGAPRGGGRGGTSAGRGRERNRSNFRGERGGFRGGRGGAHRGGFPPR
# B2: Flag-tagged recombinant human METTL14 protein (natural protein, UniProt Q9HCE5 1-456, looked up)
# chain: B1 chain
# What was measured:
# [1] = target: T1, Flag/His-tagged recombinant human DNMT1 protein (human, UniProt P26358 1-1616); test: co-IP
# [2] = target: T1, Flag/His-tagged recombinant human DNMT1 …; test: co-IP; remark: listed apart in the source
# T1 sequence (P26358 whole entry): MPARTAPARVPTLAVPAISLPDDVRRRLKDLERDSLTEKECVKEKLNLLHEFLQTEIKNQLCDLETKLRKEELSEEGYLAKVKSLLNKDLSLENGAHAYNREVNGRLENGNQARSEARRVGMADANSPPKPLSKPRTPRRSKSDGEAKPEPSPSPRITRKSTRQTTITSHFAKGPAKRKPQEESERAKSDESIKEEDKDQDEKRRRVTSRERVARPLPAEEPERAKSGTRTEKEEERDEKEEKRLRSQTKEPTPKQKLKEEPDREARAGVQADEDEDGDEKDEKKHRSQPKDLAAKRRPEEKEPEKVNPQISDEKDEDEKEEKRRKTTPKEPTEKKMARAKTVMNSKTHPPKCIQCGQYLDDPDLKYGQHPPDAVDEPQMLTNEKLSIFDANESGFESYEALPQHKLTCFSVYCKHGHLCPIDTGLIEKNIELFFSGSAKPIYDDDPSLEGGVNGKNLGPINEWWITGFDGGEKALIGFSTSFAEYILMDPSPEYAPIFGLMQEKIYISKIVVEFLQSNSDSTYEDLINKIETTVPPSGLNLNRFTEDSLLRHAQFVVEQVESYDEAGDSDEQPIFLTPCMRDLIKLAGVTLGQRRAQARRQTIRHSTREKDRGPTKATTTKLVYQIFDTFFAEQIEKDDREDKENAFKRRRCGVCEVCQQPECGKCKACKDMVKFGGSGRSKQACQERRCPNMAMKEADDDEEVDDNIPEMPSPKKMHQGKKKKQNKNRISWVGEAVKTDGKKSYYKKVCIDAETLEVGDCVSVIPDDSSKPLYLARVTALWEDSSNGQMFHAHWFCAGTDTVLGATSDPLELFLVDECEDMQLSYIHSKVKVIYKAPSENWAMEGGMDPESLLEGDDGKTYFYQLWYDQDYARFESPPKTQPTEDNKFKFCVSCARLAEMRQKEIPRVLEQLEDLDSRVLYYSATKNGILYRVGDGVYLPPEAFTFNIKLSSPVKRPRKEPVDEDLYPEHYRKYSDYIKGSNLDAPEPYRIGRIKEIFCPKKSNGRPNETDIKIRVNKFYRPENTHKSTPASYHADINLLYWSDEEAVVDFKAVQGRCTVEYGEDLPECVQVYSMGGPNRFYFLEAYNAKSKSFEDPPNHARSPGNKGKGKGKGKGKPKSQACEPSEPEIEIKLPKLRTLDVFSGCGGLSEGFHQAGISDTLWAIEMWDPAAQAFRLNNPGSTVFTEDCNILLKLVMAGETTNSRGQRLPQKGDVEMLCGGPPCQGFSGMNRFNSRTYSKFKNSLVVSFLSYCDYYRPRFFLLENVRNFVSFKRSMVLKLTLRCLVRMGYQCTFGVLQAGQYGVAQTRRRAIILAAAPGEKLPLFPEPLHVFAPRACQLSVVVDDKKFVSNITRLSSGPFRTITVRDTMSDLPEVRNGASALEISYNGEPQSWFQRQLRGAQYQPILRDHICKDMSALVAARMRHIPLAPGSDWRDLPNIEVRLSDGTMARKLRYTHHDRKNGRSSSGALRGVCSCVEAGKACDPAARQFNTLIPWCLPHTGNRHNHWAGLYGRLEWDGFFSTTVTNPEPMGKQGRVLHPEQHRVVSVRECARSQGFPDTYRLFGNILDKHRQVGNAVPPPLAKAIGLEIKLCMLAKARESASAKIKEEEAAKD
Binder,binding result [1],binding result [2]
B1,binds,
B2,,binds
